In publication PMC8865451:

Target: cs130Fc (human) (UniProt P40189)
Assay: SPR

Substance: hyper-IL-6 (HIL-6)
- Kd: 0.059 nM
